Data set [1] concerns the molecule itself. Briefly: SEC; purified CrRPI1 on two different gel filtration matrices (Superose 6 increase; BioSEC-3 300), buffer C (20 mM Tris-HCl pH 7.9, 100 mmol/L NaCl); oligomer state from apparent molecular weight. On the technique in general: Size exclusion chromatography separates by hydrodynamic size, large species first.
Data set [2] deals with the molecule itself. The experiment in a line: SEC-SAXS; 50 µL of CrRPI1 at 10 mg/mL on BioSEC-3 300 column in buffer C in series with the SAXS capillary (SWING, SOLEIL); molecular weight from scattering, curve fitted to the crystallographic dimer.

The source of these data is publication PMC7589169, “High-Resolution Crystal Structure of Chloroplastic Ribose-5-Phosphate Isomerase from Chlamydomonas reinhardtii—An Enzyme Involved in the Photosynthetic Calvin-Benson Cycle” (International Journal of Molecular Sciences, 2020).

Broadly, the stoichiometry N is a count of units in the complex or per binding partner.

B1: Chlamydomonas reinhardtii chloroplastic ribose-5-phosphate isomerase 1 (CrRPI1) (enzyme, UniProt A8IRQ1 23-269, looked up)
chain: MAAPVSTQLSQDELKKQAAWKAVEYVKSGMVVGLGTGSTAAFAVDRIGQLLKEGKLQNIVGVPTSIRTYEQALSLGIPLATLDEQPKLDVAIDGADEVDPNLDVVKGRGGALLREKMVEMASAKFVCIVDDSKLVEGLGGSKLAMPVEIVQFCHKYTLQRLANLPEVKGCEAKLRMNGDKPYVTDNSNYIVDLYFQTPIKDSQAASKAILGLDGVVDHGLFLDMVDVCIIAGATGVTVQERPNPKKH
notes: residues numbered according to UniProtKB entry A8IRQ1; Theoretical Mw of the recombinant monomer is printed as 27,551 Da; The forward primer introduces an NcoI site at the start codon; source: E. coli BL21(DE3) Rosetta-2 pLysS, purified (NiNTA)
For B1, the “stoichiometry N” value in data set [1] was 2; in data set [2] it was 1.78 to 2.
